The results in this text go back to patent US20250250362A1 (Chugai, published 2025).

In the assay the target is T1, soluble human GPC3 (human, UniProt P51654 25-563).
T1 construct: range 25-563; whole entry named for human GPC3 (NP_001158089.1); also called glypican 3
Description: SPR (Biacore). On the technique in general: In SPR one partner is held on a chip, and binding of the other changes the refractive index at the surface.

T1 sequence (P51654 25-563 limits assumed): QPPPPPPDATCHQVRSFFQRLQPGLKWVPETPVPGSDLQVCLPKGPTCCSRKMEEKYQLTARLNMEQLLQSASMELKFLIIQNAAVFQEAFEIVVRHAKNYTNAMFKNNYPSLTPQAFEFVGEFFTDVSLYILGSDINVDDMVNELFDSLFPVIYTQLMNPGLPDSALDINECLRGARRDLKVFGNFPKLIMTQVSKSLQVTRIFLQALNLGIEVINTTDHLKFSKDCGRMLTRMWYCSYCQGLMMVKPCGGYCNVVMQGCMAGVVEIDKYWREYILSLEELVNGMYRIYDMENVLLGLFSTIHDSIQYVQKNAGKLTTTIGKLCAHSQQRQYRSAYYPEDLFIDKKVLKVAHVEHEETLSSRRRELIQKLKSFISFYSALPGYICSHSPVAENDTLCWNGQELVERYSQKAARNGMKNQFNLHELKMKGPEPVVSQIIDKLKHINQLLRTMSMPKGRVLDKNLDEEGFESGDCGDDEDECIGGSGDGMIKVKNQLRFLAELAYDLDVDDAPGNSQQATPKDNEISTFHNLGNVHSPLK

B1: H0610-G1dh/none-Hi-Kn010G3/L0129-k0 (antibody, V domains shown)
VH: QVQLVQSGAEVKKPGASVKVSCKASGYTFTDYEMHWIRQPPGQGLEWIGAIDGKTPDTAYSQKFKGRVTLTADKSTSTAYMELSSLTSEDTAVYYCTRFYSYTYWGQGTLVTVSS
VL: DIVMTQSPLSLPVTPGEPASISCRSSQSLVHSNRNTYLHWYQQKPGQAPRLLIYKVSNRRSGVPDRFSGSGSGTDFTLKISRVEAEDVGVYYCGQGTQVPYTFGQGTKLEIK
notes: one-arm
Usually Kd stands for the free concentration of one partner at which half of the binding sites on the other are occupied at equilibrium, for simple one-to-one binding. A high value points to a looser complex. B1: the Kd was found to be 4.54 nM. In other words, the single-digit nanomolar range.
